Test results taken from PMC5498992.
“And” between values parts separate entries of the source, which are not always exact repeats. Equal entries are not always repeated.

Molecular target: chitin binding domain-intein fusion of the ToxR periplasmic domain (CBDI-ToxRp) (V. cholerae El Tor N16961), P15795
Assay: pull-down

B1: ToxS periplasmic domain (ToxSp), purified, cleaved from the chitin binding domain-intein tag, P24003 25-173 (domain or fragment)
chain: SDFKLEQVLTSREWQSKMVSLIKTNSNRPAMGPLSRVDVTSNVKYLPNGTYLRVSIVKLFSDDNSAESVINISEFGEWDISDNYLLVTPVEFKDISSNQSKDFTDEQLQLITQLFKMDAQQSRRVDIVNERTILFTSLSHGSTVLFSNS
modifications: not checked
- percent of input pulled down: 6% and 9%
